One test concerns the target T1, recombinant mouse FGL2 (mouse, UniProt P12804 27-432, limits assumed).
T1 construct: native mouse FGL2 is said to exist as an oligomer; also called murine recombinant FGL2
T1 sequence (looked up): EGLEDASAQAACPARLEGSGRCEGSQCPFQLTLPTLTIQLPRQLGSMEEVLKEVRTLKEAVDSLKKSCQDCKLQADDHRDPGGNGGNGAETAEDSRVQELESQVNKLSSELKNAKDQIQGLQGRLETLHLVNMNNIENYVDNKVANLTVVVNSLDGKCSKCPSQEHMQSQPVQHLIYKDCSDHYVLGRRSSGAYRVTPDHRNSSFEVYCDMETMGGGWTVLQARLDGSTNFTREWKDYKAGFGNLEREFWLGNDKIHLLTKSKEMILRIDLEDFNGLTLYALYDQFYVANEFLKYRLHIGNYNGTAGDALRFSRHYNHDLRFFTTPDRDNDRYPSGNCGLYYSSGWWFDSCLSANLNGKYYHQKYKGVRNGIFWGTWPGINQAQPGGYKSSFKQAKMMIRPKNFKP
Kind of test: SPR, Biacore 3000, 25 C, antibody captured by goat anti-mouse Fc, FGL2 as analyte. As for the experimental part: (§1) The response difference (Resp. Diff.) for each experiment was plotted against time (s). Resp. Diff. is the ligand-immobilized flow cell minus the control flow cell. A) Human FGL2. For the full kinetic analysis, SPR was performed using 0.625 nM, 2.5 nM, 5 nM, and 10 nM recombinant human FGL2. B) Mouse FGL2. For this analysis, SPR was performed using 10 nM recombinant mouse FGL2.
(§2) Binding experiments were performed on Biacore 3000 at 25° C. Flow cell 2 was coated with 1,000 RU of the goat anti-mouse Fc capture Ab by direct immobilization using EDC/NHS amine coupling method and the unoccupied sites were blocked with 1M ethanolamine. 9D8 or 3H9 was captured at an RU as indicated. Either recombinant human or mouse FGL2 was flowed over the chip and binding to 9D8 or 3H9 was monitored in real time. From the observed kon and koff, KD was determined.
On the technique in general: In SPR one partner is held on a chip, and binding of the other changes the refractive index at the surface.

For another test, the target named is T2, recombinant human FGL2 (human, UniProt Q14314 30-439, limits assumed).
T2 construct: also called hFGL2; FGL2/fibroleukin
T2 sequence (looked up): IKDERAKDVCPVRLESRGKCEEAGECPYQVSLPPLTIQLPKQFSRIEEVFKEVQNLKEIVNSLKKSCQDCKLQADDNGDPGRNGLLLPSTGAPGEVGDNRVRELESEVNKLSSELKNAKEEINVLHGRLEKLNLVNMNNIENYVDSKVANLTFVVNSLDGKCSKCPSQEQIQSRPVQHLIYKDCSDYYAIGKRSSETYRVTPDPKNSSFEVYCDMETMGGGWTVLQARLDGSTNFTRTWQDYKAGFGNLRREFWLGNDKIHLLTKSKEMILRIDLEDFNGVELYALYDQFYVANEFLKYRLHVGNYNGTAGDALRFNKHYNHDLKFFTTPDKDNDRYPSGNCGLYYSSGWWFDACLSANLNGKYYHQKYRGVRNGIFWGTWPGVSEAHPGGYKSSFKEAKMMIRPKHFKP
The test is described as above. As for the experimental part: as §1, §2

Usually Kd stands for the constant that tells how readily two partners part at equilibrium. Broadly, the koff is the first-order rate constant of dissociation. A word on the kon: it is the second-order rate constant of association.

B1: anti-FGL2 monoclonal antibody 3H9 (antibody, mouse IgG2b, kappa, V domains shown)
VH: EVQLQQSGPELVKSGASVKISCKTSGYTFTEYTIHWVKQSHGESLEWVGGINPKNGGISYNQKFKGKATLTVDKSSSTAYMELRSLTSEDSAVYFCARWGIGNYVGFPYWGQGTLVTVSA
VL: SIVMTQTPKFLLVSAGDRVTMTCKASLSVNNDVAWYQQKPGQSPKLLISYASSRYTGVPDRFTGSGYGTDFTFTISSVQAEDLAVYFCQQDYSSPLTFGAGTKLELKR
notes: Mouse hybridoma antibody generated in the same manner as 9D8; here built without leader
Regarding B1, in the test with recombinant mouse FGL2, the Kd is 0.103 nM, the koff was found to be 0.000189 s⁻¹ and the kon is 1.84e+06 M⁻¹ s⁻¹. Further, in the test with recombinant human FGL2, the Kd was found to be 0.286 nM, the koff was 0.000884 s⁻¹ and the kon came out at 3.09e+06 M⁻¹ s⁻¹.

B2: anti-FGL2 monoclonal antibody 9D8 (antibody, mouse IgG1, kappa, V domains shown)
VH: EVQLQQSGAELVKPGASVQLSCTASGFNIKDTYIHWVKQRPEQGLEWIGRIDPEDGNTKYDPKFQAKATITADTFSNTAYLQLSSLTSEDTAVYYCARSYGNAYWGQGTLVTVSA
VL: DIVLTQSPASLAVSLGQRATISCRASQSVSTSRYTYMHWYQQKPGQPPKLLIKYASNLDSGVPARFSGSGSGTDFTLNIHPVQEEDTATYYCQHSWEIWAFGGGTKLEIKR
notes: Mouse hybridoma antibody purified from ascites; isotype-matched control was IgG1; here built without leader from variable region plus constant region; also called clone 9D8; antibody to FGL2 (9D8)
With B2, in the test with recombinant mouse FGL2, the Kd was found to be 1.8 nM, the koff amounted to 0.00334 s⁻¹ and the kon is 1.85e+06 M⁻¹ s⁻¹. For the same molecule, in the test with recombinant human FGL2, the Kd is 0.857 nM, the koff is 0.0019 s⁻¹ and the kon was found to be 2.22e+06 M⁻¹ s⁻¹.

For the origin of these results see US20200190176A1 (VERITAS THERAPEUTICS, published 2020).
